To fix the notation:
B1: TPR 5TU (parent)
chain: GGAUCUUCUCGAUCUAACAAAAAAGACAAAUCUGCCACAAAGCUUGAGAGCAUCUUCGGAUGCAGAGGCGGCAGCCUUCGGUGGCGCGAUAGCGCCAACGUUCUCAACUAUGACACGCAAAACGCGUGCUCCGUUGAAUGGAGUUUAUCAUG

This sample holds only a part of the variants without activity.

This data set covers variants of B1. Kind of data set: polymerase ribozyme fitness, log enrichment relative to wild type (log ratio); higher = more active; in vitro selection for triplet polymerase activity. The gist of the method:
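PCR was used to build mutant libraries for each subunit of a heterodimeric triplet polymerase ribozyme, which were then transcribed. A single in vitro selection round, in triplicate, used a frozen incubation at −7 °C and recovered extended constructs by gel excision, streptavidin beads and RT-PCR. Fitness is the logarithm of genotype enrichment relative to wild-type enrichment, averaged over replicates with inverse-variance weights. The logarithm is base 2, and after Illumina sequencing only genotypes with ≥10 input reads and ≥1 read per output were kept.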
On to A98U G141A, for which the “polymerase ribozyme fitness (log ratio)” value was -0.0351.

Turning to C87A G88C C96U C118U U146C, the “polymerase ribozyme fitness (log ratio)” value is no more than -4.2.

Turning to U56G C57U C96U, the “polymerase ribozyme fitness (log ratio)” value is -0.884.

As for U56A C76G C85U A91G U111G C118U G140A G143A, the “polymerase ribozyme fitness (log ratio)” value is no more than -4.2.

For the variant U53A C85U C105G, the “polymerase ribozyme fitness (log ratio)” value is no more than -4.2.

A3U: the “polymerase ribozyme fitness (log ratio)” value is -0.0169.

As for C38A C51U C95U G124C, the “polymerase ribozyme fitness (log ratio)” value is -1.51.

In the case of C35U C95U G126A, the “polymerase ribozyme fitness (log ratio)” value was -1.49.

A19U U31C C132G: the “polymerase ribozyme fitness (log ratio)” value was -2.74.

Turning to U33G G58A G86A, the “polymerase ribozyme fitness (log ratio)” value was -4.02.

Consider A17C U31G C76A C95G, for which the “polymerase ribozyme fitness (log ratio)” value is no more than -4.2.

For the variant C38G C54G C79U G117A, the “polymerase ribozyme fitness (log ratio)” value was no more than -4.2.

U55G A73U U146C: the “polymerase ribozyme fitness (log ratio)” value was -1.74.

In the case of U44C U146C, the “polymerase ribozyme fitness (log ratio)” value was -3.77.

Take U109C: the “polymerase ribozyme fitness (log ratio)” value was -2.81.

Consider A66C C96A A115C C123U G136C, for which the “polymerase ribozyme fitness (log ratio)” value was no more than -4.2.

G92A A98U U111A C123U U144A A150C: the “polymerase ribozyme fitness (log ratio)” value was no more than -4.2.

Take G50A C72U C85A: the “polymerase ribozyme fitness (log ratio)” value was -2.69.

As to G62A C75G C96A, the “polymerase ribozyme fitness (log ratio)” value is no more than -4.2.

As for A3U C72U C79G G92U, the “polymerase ribozyme fitness (log ratio)” value was no more than -4.2.

In the case of A115U U134G, the “polymerase ribozyme fitness (log ratio)” value is -3.31.

As for G59U C114U, the “polymerase ribozyme fitness (log ratio)” value was -1.62.

For C85A C103U C123G A147U, the “polymerase ribozyme fitness (log ratio)” value is -0.703.

Turning to A16C A26G G86U, the “polymerase ribozyme fitness (log ratio)” value was no more than -4.2.

For U15G C85A C123U, the “polymerase ribozyme fitness (log ratio)” value was -0.906.

Regarding C14U C99A G136A, the “polymerase ribozyme fitness (log ratio)” value was -2.47.

As to A12U A21G C95U C99A G126A C132U, the “polymerase ribozyme fitness (log ratio)” value is -3.58.

As for U56C C103G C129U, the “polymerase ribozyme fitness (log ratio)” value is -4.1.

On to U55G C79G, for which the “polymerase ribozyme fitness (log ratio)” value was -3.78.

In the case of G42U G65C G70A C76A G86U U139G A142U, the “polymerase ribozyme fitness (log ratio)” value was no more than -4.2.

Regarding C95A A98U U104G A106C, the “polymerase ribozyme fitness (log ratio)” value was no more than -4.2.

For G80A A113C U145A, the “polymerase ribozyme fitness (log ratio)” value is -3.89.

On to C87G G126A, for which the “polymerase ribozyme fitness (log ratio)” value is -4.11.

Take C57G G59U A60G C85G A89U A97U G128A U148A: the “polymerase ribozyme fitness (log ratio)” value is no more than -4.2.

Turning to C32G C108G G140U G141A U145G, the “polymerase ribozyme fitness (log ratio)” value was no more than -4.2.

Take C10G A21G G59A: the “polymerase ribozyme fitness (log ratio)” value is no more than -4.2.

A40U U104C C108A: the “polymerase ribozyme fitness (log ratio)” value is no more than -4.2.

Consider G59A A97G, for which the “polymerase ribozyme fitness (log ratio)” value was -0.633.

On to U55G G71A C87G G112C, for which the “polymerase ribozyme fitness (log ratio)” value was no more than -4.2.

Turning to A17U U90G C103A, the “polymerase ribozyme fitness (log ratio)” value is no more than -4.2.

For C35G U55C G68U A91G G126A, the “polymerase ribozyme fitness (log ratio)” value was no more than -4.2.

For the variant A41C G92U C103U C123G, the “polymerase ribozyme fitness (log ratio)” value is -1.2.

For the variant C5G A24C G48A A52C C85U G140U, the “polymerase ribozyme fitness (log ratio)” value was no more than -4.2.

As for C36A A47U G74U G92C A115G C149G, the “polymerase ribozyme fitness (log ratio)” value was no more than -4.2.

For the variant C54G A122G U144G, the “polymerase ribozyme fitness (log ratio)” value was -0.687.

On to G42U G59A, for which the “polymerase ribozyme fitness (log ratio)” value was no more than -4.2.

Regarding A3U A73G C79G C93A C116U G117U A138U, the “polymerase ribozyme fitness (log ratio)” value is no more than -4.2.

C51U A89U G92C C129U: the “polymerase ribozyme fitness (log ratio)” value is -2.18.

For the variant A12C G94A G152C, the “polymerase ribozyme fitness (log ratio)” value is -3.98.

U55A U56A C57A C85U G86A C103G: the “polymerase ribozyme fitness (log ratio)” value was no more than -4.2.

Turning to U6G A20C C38U C57U U61A C76G G94C A97G U145G, the “polymerase ribozyme fitness (log ratio)” value was no more than -4.2.

Consider C85G C99U, for which the “polymerase ribozyme fitness (log ratio)” value was -3.51.

Regarding U13C C96A C99U, the “polymerase ribozyme fitness (log ratio)” value was -1.75.

For the variant A37C A98U, the “polymerase ribozyme fitness (log ratio)” value is 0.384.

On to C35U A107U, for which the “polymerase ribozyme fitness (log ratio)” value is -4.03.

As to G25A A40G C43U G62C C85U G86A C95A G133U, the “polymerase ribozyme fitness (log ratio)” value is no more than -4.2.

As for C76U C79U C85A G92C C132G, the “polymerase ribozyme fitness (log ratio)” value is no more than -4.2.

In the case of G59C U146G, the “polymerase ribozyme fitness (log ratio)” value is -0.145.

Consider G25U A41U, for which the “polymerase ribozyme fitness (log ratio)” value was -3.

Turning to U15G C38U A41C A52U G59U G65C G141A, the “polymerase ribozyme fitness (log ratio)” value was no more than -4.2.

Consider U13G A40C A73G C85U, for which the “polymerase ribozyme fitness (log ratio)” value was -2.84.

For A91U G94U C96G A115G G141C, the “polymerase ribozyme fitness (log ratio)” value is no more than -4.2.

Consider C85U G140U U146C, for which the “polymerase ribozyme fitness (log ratio)” value was -2.87.

As to C5U A19G U135C G141U, the “polymerase ribozyme fitness (log ratio)” value is -3.73.

Turning to A41C A49G C51A G71U C93A C95U U111G, the “polymerase ribozyme fitness (log ratio)” value is no more than -4.2.

In the case of U44A A107U, the “polymerase ribozyme fitness (log ratio)” value is -0.956.

Take A49U G50C C57U A89C C96A: the “polymerase ribozyme fitness (log ratio)” value was -3.23.

For C85G C103A G140U, the “polymerase ribozyme fitness (log ratio)” value is no more than -4.2.

As to A19C A22U C38G G58C C85U U102A, the “polymerase ribozyme fitness (log ratio)” value was -1.87.

In the case of A52G G74A A137U, the “polymerase ribozyme fitness (log ratio)” value is no more than -4.2.

For G50C C57G C118G, the “polymerase ribozyme fitness (log ratio)” value is -3.68.

On to A24G C38U, for which the “polymerase ribozyme fitness (log ratio)” value is no more than -4.2.

Consider C36A A110U A122U, for which the “polymerase ribozyme fitness (log ratio)” value was no more than -4.2.

In the case of U4C C75A C85G C99G U145G A147U, the “polymerase ribozyme fitness (log ratio)” value is no more than -4.2.

As to G58A G83A U109C A115U, the “polymerase ribozyme fitness (log ratio)” value was no more than -4.2.

With C54U G83A A147U, the “polymerase ribozyme fitness (log ratio)” value was -0.818.

Turning to U78G C87G G92U A97C, the “polymerase ribozyme fitness (log ratio)” value was no more than -4.2.

With C5G G152C, the “polymerase ribozyme fitness (log ratio)” value is -2.87.

As to C18U C38G A52G U101G, the “polymerase ribozyme fitness (log ratio)” value was -1.69.

C51U G70A A91C A97C U144C: the “polymerase ribozyme fitness (log ratio)” value was no more than -4.2.

U55G C87U C129G: the “polymerase ribozyme fitness (log ratio)” value is -3.16.

In the case of C5G C14A G48U U53A G74A G80C U82G C96G C118G G133U, the “polymerase ribozyme fitness (log ratio)” value is no more than -4.2.

Turning to G50A G141A, the “polymerase ribozyme fitness (log ratio)” value is -0.962.

For the variant C18U A22C A40U A89C, the “polymerase ribozyme fitness (log ratio)” value was -0.248.

The values above are taken from the RNAGym collection of RNA variant scans (doi:10.1073/pnas.2313332121).
